Patent publication US20210395374A1

Columns and labels:
Human CD3ε/δ (human) = Human CD3ε/δ (human) (UniProt P07766); test: kinetic binding analysis (ka/kd); method not stated
[1] = molecular target: Cynomolgus CD3ε/δ (cynomolgus monkey) (UniProt Q95LI5); test: as above
UniProt Q95LI5, sequence (Q95LI5 22-117, stated change not applied, chain 1 of 2): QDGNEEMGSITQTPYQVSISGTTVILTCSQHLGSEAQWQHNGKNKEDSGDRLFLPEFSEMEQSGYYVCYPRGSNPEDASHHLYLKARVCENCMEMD
UniProt Q95LI5, sequence (Q95LI8 22-105, stated change not applied, chain 2 of 2, further chain): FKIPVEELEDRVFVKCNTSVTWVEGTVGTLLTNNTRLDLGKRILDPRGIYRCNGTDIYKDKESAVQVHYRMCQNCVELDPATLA

UniProt P07766, sequence (P07766 23-126, stated change not applied, chain 1 of 2): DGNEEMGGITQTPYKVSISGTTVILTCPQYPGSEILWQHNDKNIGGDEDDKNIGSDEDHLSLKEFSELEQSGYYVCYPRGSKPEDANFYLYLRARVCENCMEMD
UniProt P07766, sequence (P04234 22-105, stated change not applied, chain 2 of 2, further chain): as the sequence (Q95LI8 22-105, stated change not applied, chain 2 of 2, further chain) above, with V5I, K15N, V20I, T32S, N33D, N34I, A64T, N74S, L83V counted along it

B1: DART-A (sequence-optimized CD123×CD3 bispecific diabody) (bispecific antibody)
chain 1: QAVVTQEPSLTVSPGGTVTLTCRSSTGAVTTSNYANWVQQKPGQAPRGLIGGTNKRAPWTPARFSGSLLGGKAALTITGAQAEDEADYYCALWYSNLWVFGGGTKLTVLGGGGSGGGGEVQLVQSGAELKKPGASVKVSCKASGYTFTDYYMKWVRQAPGQGLEWIGDIIPSNGATFYNQKFKGRVTITVDKSTSTAYMELSSLRSEDTAVYYCARSHLLRASWFAYWGQGTLVTVSSGGCGGGEVAALEKEVAALEKEVAALEKEVAALEK
chain 2: DFVMTQSPDSLAVSLGERVTMSCKSSQSLLNSGNQKNYLTWYQQKPGQPPKLLIYWASTRESGVPDRFSGSGSGTDFTLTISSLQAEDVAVYYCQNDYSYPYTFGQGTKLEIKGGGSGGGGEVQLVESGGGLVQPGGSLRLSCAASGFTFSTYAMNWVRQAPGKGLEWVGRIRSKYNNYATYYADSVKDRFTISRDDSKNSLYLQMNSLKTEDTAVYYCVRHGNFGNSYVSWFAYWGQGTLVTVSSGGCGGGKVAALKEKVAALKEKVAALKEKVAALKE
In the case of B1, the Kd (Human CD3ε/δ (human)) is reported as 9 nM, the koff (Human CD3ε/δ (human)) is reported as 0.005 s⁻¹ and the kon (Human CD3ε/δ (human)) is reported as 570000 M⁻¹ s⁻¹. For the same binder, the Kd [1] was 9.2 nM, the koff [1] was 0.005 s⁻¹ and the kon [1] was 550000 M⁻¹ s⁻¹.
